Molecular target: T1, human raver1 RRM1-3 domains (residues 39-321) (human, UniProt Q8IY67 39-321)
T1 sequence: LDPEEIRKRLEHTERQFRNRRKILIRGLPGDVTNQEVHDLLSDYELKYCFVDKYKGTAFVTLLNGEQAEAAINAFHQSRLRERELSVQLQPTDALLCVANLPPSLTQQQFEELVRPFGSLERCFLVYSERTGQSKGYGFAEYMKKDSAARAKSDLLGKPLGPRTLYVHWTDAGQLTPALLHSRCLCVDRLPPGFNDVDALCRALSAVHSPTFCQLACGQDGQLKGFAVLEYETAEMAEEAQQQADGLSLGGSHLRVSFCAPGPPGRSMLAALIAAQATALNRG
Experiment: SEC

binding result: binds
B1: human vinculin tail domain (Vt), wild type, residues 891-1,066 (domain or fragment)
chain: GEVINQPMMMAARQLHDEARKWSSKGNDIIAAAKRMALLMAEMSRLVRGGSGTKRALIQCAKDIAKASDEVTRLAKEVAKQCTDKRIRTNLLQVCERIPTISTQLKILSTVKATMLGRTNISDEESEQATEMLVHNAQNLMQSVKETVREAEAASIKIRTDAGFTLRWVRKTPWYQ

Reference: publication PMC4259812 (The Journal of Cell Biology, 2014)
